Test results as given in paper PMC7397094.
Where two headings read alike, the source gives them in different places.

Experiments:
[1] = biological target: human recombinant RetGC1 (retinal membrane guanylyl cyclase 1) (human) (UniProt Q02846)
[2] = biological target: human recombinant RetGC1 (retinal membrane guanylyl cyclase 1) (human) (UniProt Q02846); remark: listed apart in the source
[3] = biological target: human recombinant RetGC1 (retinal membrane guanylyl cyclase 1) (human) (UniProt Q02846); remark: listed apart in the source
[4] = biological target: human recombinant RetGC1 (retinal membrane guanylyl cyclase 1) (human) (UniProt Q02846); remark: listed apart in the source

UniProt Q02846, sequence (Q02846 52-1103): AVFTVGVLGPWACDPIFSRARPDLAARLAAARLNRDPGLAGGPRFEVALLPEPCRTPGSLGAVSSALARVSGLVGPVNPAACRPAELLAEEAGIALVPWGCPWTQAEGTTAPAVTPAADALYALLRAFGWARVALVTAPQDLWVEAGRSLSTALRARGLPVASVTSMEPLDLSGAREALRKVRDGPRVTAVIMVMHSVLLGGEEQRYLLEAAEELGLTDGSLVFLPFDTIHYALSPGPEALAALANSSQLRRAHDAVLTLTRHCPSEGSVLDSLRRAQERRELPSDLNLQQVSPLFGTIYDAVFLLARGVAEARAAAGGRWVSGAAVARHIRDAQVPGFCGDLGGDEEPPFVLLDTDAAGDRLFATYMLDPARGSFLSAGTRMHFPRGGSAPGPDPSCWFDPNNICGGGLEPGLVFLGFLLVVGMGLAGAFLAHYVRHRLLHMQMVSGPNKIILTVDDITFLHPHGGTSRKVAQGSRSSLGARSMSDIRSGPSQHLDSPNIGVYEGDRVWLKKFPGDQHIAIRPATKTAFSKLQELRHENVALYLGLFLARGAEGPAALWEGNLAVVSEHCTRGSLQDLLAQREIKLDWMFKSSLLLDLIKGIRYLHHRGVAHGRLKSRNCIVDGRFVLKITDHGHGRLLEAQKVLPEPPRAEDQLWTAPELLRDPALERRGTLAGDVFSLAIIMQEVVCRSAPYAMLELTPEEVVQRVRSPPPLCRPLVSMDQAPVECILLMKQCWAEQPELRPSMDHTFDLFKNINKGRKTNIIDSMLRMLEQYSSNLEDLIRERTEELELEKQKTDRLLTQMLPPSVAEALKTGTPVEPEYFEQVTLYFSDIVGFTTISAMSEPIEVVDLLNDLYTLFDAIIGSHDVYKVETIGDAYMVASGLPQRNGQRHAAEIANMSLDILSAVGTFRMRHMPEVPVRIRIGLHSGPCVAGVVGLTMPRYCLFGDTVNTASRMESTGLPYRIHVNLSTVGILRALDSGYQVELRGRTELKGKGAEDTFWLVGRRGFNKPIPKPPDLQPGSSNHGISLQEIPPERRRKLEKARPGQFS

Row | Substance | IC50 of inhibition of GCAP1-activated RetGC1 activity [1] | RetGC1 activity left with 100 nM RD3, % of that without RD3 (1.5 uM GCAP1) [2] | IC50 of inhibition of GCAP1-activated RetGC1 activity [3] | IC50 of inhibition of GCAP1-activated RetGC1 activity (empirical estimate) [4]
1 | RD3 R101E (from UniProt Q7Z3Z2 1-195) (natural protein) | 135 nM | 37.9% |  | 
2 | RD3 G94Y (from UniProt Q7Z3Z2 1-195) (natural protein) | 20.7 nM | 22.5% |  | 
3 | RD3 P146ter (from UniProt Q7Z3Z2 1-145) (domain or fragment) |  | 11.7% | 3.4 nM | 
4 | RD3 H89G (from UniProt Q7Z3Z2 1-195) (natural protein) | 10.6 nM | 13.2% |  | 
5 | RD3 S74R (from UniProt Q7Z3Z2 1-195) (natural protein) | 15.6 nM | 15.5% |  | 
6 | RD3 R101A (from UniProt Q7Z3Z2 1-195) (natural protein) | 261 nM | 48% |  | 
7 | RD3 A105Y (from UniProt Q7Z3Z2 1-195) (natural protein) | 16.7 nM | 17.9% |  | 
8 | RD3 Q102L (from UniProt Q7Z3Z2 1-195) (natural protein) | 59 nM | 28.5% |  | 
9 | RD3 W62A/L63R (from UniProt Q7Z3Z2 1-195) (natural protein) |  |  |  | > 10000 nM
10 | RD3 L63R (from UniProt Q7Z3Z2 1-195) (natural protein) | 882 nM | 82.8% |  | 
11 | WT RD3 (retinal degeneration-3), bacterially expressed (from UniProt Q7Z3Z2 1-195) (natural protein) | 3.6 nM | 11% |  | 
12 | RD3 W62A (from UniProt Q7Z3Z2 1-195) (natural protein) | 253 nM | 49.7% |  | 
13 | RD3 W6L/W9L (from UniProt Q7Z3Z2 1-195) (natural protein) |  | 13.4% | 4.5 nM | 
14 | RD3 Y60A (from UniProt Q7Z3Z2 1-195) (natural protein) | 630 nM | 65.3% |  | 
15 | RD3 E106K (from UniProt Q7Z3Z2 1-195) (natural protein) | 13.5 nM | 17.5% |  | 
16 | RD3 S61Y (from UniProt Q7Z3Z2 1-195) (natural protein) | 11.8 nM | 17.7% |  | 
17 | RD3 Y92A (from UniProt Q7Z3Z2 1-195) (natural protein) | 9.8 nM | 13.3% |  | 
18 | RD3 D59R (from UniProt Q7Z3Z2 1-195) (natural protein) | 26.6 nM | 24.1% |  | 
